What all share (assay): Octet BLI; Fab 200 nM
For assay [1], the target named is T1, extracellular domain of human BCMA (human, UniProt Q02223 1-54).
T1 construct: amine-linked to Octet AR2G tips; also called hsBCMA; BCMA (human)
T1 sequence: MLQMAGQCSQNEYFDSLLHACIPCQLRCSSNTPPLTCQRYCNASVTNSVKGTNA

In assay [2] the target is T2, extracellular domain of rhesus monkey BCMA (rhesus monkey, UniProt F7FFA0 1-53).
T2 construct: extracellular domain; also called RhBCMA

In assay [3] the target is T1, extracellular domain of human BCMA. This is another data set of the same source.
In assay [4] the target is T2, extracellular domain of rhesus monkey …. The source holds these as a separate data set.

Where a chain is given by its changes, count along the chain named. Where two headings read alike, the source gives them in different places.

T2 sequence (F7FFA0 entry or part of it): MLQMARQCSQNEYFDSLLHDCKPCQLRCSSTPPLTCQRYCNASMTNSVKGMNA

B1: AB200-R1a-Fab(hCDR2) (Fab, V domains shown)
VH: QVQLVQSGAEVKKPGSSVKVSCKASGGTFSNYWMHWVRQAPGQGLEWMGATYRGHSDTYYNQKFKGRVTITADKSTSTAYMELSSLRSEDTAVYYCARGAIYHGYDVLDNWGQGTLVTVSS
VL: DIQMTQSPSSLSASVGDRVTITCSASQDISNYLNWYQQKPGKAPKLLIYAASSLQSGVPSRFSGSGSGTDFTLTISSLQPEDFATYYCQQYRKLPWTFGQGTKLEIKR
Consider B1, for which the Kd in assay [1] came out at 2.14 nM; in assay [2], 7.14 nM.

B2: AB200-R1a-Fab_VH60 (Fab, V domains shown)
VH: B1 VH with N31S, G54I, T58S
VL: B1 VL with S26T, A50F, A51T, S53N
Turning to B2, the values for the equilibrium dissociation constant (Kd) in assay [3] and in assay [4] were 13.6 nM and 17.8 nM, respectively.

B3: AB200-R1a-Fab_VH48 (Fab, V domains shown)
VH: B1 VH with N31D, K63R, L108M
VL: B1 VL with S26T, A50F, A51T, S53N
Take B3: the Kd turned out to be 34.5 nM in assay [3] and 25 nM in assay [4].

B4: AB200-R1a-Fab_VH52 (Fab, V domains shown)
VH: B1 VH with T28S, N31D, D57T
VL: B1 VL with S26T, A50F, A51T, S53N
Turning to B4, the Kd in assay [3] worked out at 18 nM; in assay [4], 24.6 nM.

B5: AB200-R1a-Fab_VH54 (Fab, V domains shown)
VH: B1 VH with S56G, Y59F, D109N
VL: B1 VL with S26T, A50F, A51T, S53N
Turning to B5, the Kd in assay [3] came to 12 nM; in assay [4] it was 20.8 nM.

B6: AB200-R1a-Fab_Vk11 (Fab, V domains shown)
VH: B1 VH
VL: B1 VL with S24R, I29V, A50Y, A51T, S52T, S53N, Q55H
For the molecule B6, the figures for the Kd in assay [1] and in assay [2] were 1.53 nM and 5.74 nM, respectively.

B7: AB200-R1a-Fab_Vk4 (Fab, V domains shown)
VH: B1 VH
VL: B1 VL with S24T, S26T, S30T, A50Y, A51T, S53N, Q55H
Turning to B7, the Kd was found to be 2.2 nM in assay [1] and 7.9 nM in assay [2].

B8: AB200-R1a-Fab_Vk7 (Fab, V domains shown)
VH: B1 VH
VL: B1 VL with Y32F, A50Y, A51T, S53N, Q55H, Y91F, L94M
As to B8, the Kd in assay [1] is 14.7 nM; in assay [2] it was 25.1 nM.

B9: AB200-R1a-Fab_VH46 (Fab, V domains shown)
VH: B1 VH with Y59N, F64Y, H103N
VL: B1 VL with S26T, A50F, A51T, S53N
Regarding B9, the Kd in assay [3] worked out at 11.6 nM; in assay [4], 20 nM.

B10: AB200-R1a-Fab_VH56 (Fab, V domains shown)
VH: B1 VH with M34I, K65R, A100T
VL: B1 VL with S26T, A50F, A51T, S53N
Consider B10, for which the Kd in assay [3] was determined as 20.7 nM; in assay [4] it was 18 nM.

B11: AB200-R1a-Fab_Vk5 (Fab, V domains shown)
VH: B1 VH
VL: B1 VL with N31S, A50Y, A51T, S53N, Q55H, K93S, L94T
With B11, the Kd was 7.83 nM in assay [1] and 27.5 nM in assay [2].

B12: AB200-R1a-Fab_Vk17 (Fab, V domains shown)
VH: B1 VH
VL: B1 VL with S26T, A50Y, A51T, S52T, S53N, Q55H, R92Y
Turning to B12, the values for the Kd in assay [1] and in assay [2] were 4.45 nM and 7.71 nM, respectively.

B13: AB200-R1a-Fab_VH32 (Fab, V domains shown)
VH: B1 VH with G54S, G66S, L108I
VL: B1 VL with S26T, A50F, A51T, S53N
With B13, the results for the Kd in assay [3] and in assay [4] were 1.09 nM and 4.17 nM, respectively.

B14: AB200-R1a-Fab_VH45 (Fab, V domains shown)
VH: B1 VH with Q62N, D109E, N110D
VL: B1 VL with S26T, A50F, A51T, S53N
As for B14, the Kd in assay [3] was determined as 21.1 nM; in assay [4], 44.9 nM.

B15: AB200-R1a-Fab_Vk18 (Fab, V domains shown)
VH: B1 VH
VL: B1 VL with S24T, A50Y, A51T, S53D, Q55H, S56I
Consider B15, for which the figures for the Kd in assay [1] and in assay [2] were 2.93 nM and 11 nM, respectively.

B16: AB200-R1a-Fab_VH8 (Fab, V domains shown)
VH: B1 VH with G54S, K74E, Y102F
VL: B1 VL with S26T, A50F, A51T, S53N
With B16, the Kd was determined as 0.948 nM in assay [3] and 3.14 nM in assay [4].

B17: AB200-R1a-Fab_Vk14 (Fab, V domains shown)
VH: B1 VH
VL: B1 VL with A50Y, A51S, S53N, L54M, Q55H, Y91F
For B17, the Kd in assay [1] turned out to be 4.03 nM; in assay [2], 11.5 nM.

B18: AB200-R1a-Fab_Vk19 (Fab, V domains shown)
VH: B1 VH
VL: B1 VL with Q27N, L33I, A50Y, A51T, S53N, Q55H, Y91F
Turning to B18, the figures for the Kd in assay [1] and in assay [2] were 2.07 nM and 5.74 nM, respectively.

B19: AB200-R1a-Fab_Vk1 (Fab, V domains shown)
VH: B1 VH
VL: B1 VL with S24R, N31S, A50Y, A51T, S53N, L54I, Q55H
With B19, the results for the Kd in assay [1] and in assay [2] were 1.75 nM and 6.37 nM, respectively.

B20: AB200-R1a-Fab_Vk13 (Fab, V domains shown)
VH: B1 VH
VL: B1 VL with Q27N, A50Y, A51S, S53D, Q55H
For the molecule B20, the Kd stood at 7.14 nM in assay [1] and 24.6 nM in assay [2].

B21: AB200-R1a-Fab_VH49 (Fab, V domains shown)
VH: B1 VH with M34I, T51S, L108I
VL: B1 VL with S26T, A50F, A51T, S53N
For the molecule B21, the Kd in assay [3] is 6.72 nM; in assay [4], 15.6 nM.

B22: AB200-R1a-Fab_Vk3 (Fab, V domains shown)
VH: B1 VH
VL: B1 VL with L33I, A50Y, A51T, S53N, L54M, Q55H, T97S
Take B22: the Kd was found to be 1.84 nM in assay [1] and 6.21 nM in assay [2].

B23: AB200-R1a-Fab_Vk6 (Fab, V domains shown)
VH: B1 VH
VL: B1 VL with S26T, A50F, A51T, S53N
notes: also called AB200 kappa variant 6; AB200_Vk6_Fab
As for B23, the Kd came to 1.11 nM in assay [1] and 4.26 nM in assay [2].

B24: AB200-R1a-Fab_VH57 (Fab, V domains shown)
VH: B1 VH with F29Y, W33Y, D57E
VL: B1 VL with S26T, A50F, A51T, S53N
Consider B24, for which the Kd turned out to be 11.1 nM in assay [3] and 12 nM in assay [4].

B25: AB200-R1a-Fab_VH44 (Fab, V domains shown)
VH: B1 VH with A50G, K63R, V107I
VL: B1 VL with S26T, A50F, A51T, S53N
Turning to B25, the results for the dissociation constant (Kd) in assay [3] and in assay [4] were 29 nM and 8.61 nM, respectively.

B26: AB200-R1a-Fab_VH59 (Fab, V domains shown)
VH: B1 VH with S25T, W33A, T51S
VL: B1 VL with S26T, A50F, A51T, S53N
With B26, the dissociation constant Kd was 26.2 nM in assay [3] and 28.3 nM in assay [4].

B27: AB200-R1a-Fab_VH16 (Fab, V domains shown)
VH: B1 VH with N31T, G54I, K74E
VL: B1 VL with S26T, A50F, A51T, S53N
Take B27: the Kd in assay [3] was 14.3 nM; in assay [4], 15.2 nM.

B28: AB200-R1a-Fab_VH50 (Fab, V domains shown)
VH: B1 VH with Y52F, G66S, I101V
VL: B1 VL with S26T, A50F, A51T, S53N
On to B28, for which the Kd in assay [3] was 4.67 nM; in assay [4] it was 9.65 nM.

(Values after patent US20240327535A1 (EISAI R AND D MANAGEMENT, published 2024).)
